Measurements reported in article PMC7496778, “Characterizing the original anti‐C5 function‐blocking antibody, BB5.1, for species specificity, mode of action and interactions with C5” (Immunology, 2020).

Assays:
[1] = biological target: T1, human complement component 5 (C5) (Homo sapiens, UniProt P01031); test: ELISA; direct ELISA; plates coated with mouse or human C5 (0.5 µg/ml, bicarbonate buffer pH 9.6); BB5.1 intact mAb 5-0 µg/ml or Fab 20-0 µg/ml in 0.2% BSA-PBS, 1 hr at 37°; HRP-labelled secondary antibody; conditions: both partners purified
T1 construct: complement C5 beta chain, human, cut from the C5 precursor; complement C5 alpha chain, human, cut from the C5 precursor; also called human C5; source: purified in-house
T1 sequence (P01031 whole entry, looked up): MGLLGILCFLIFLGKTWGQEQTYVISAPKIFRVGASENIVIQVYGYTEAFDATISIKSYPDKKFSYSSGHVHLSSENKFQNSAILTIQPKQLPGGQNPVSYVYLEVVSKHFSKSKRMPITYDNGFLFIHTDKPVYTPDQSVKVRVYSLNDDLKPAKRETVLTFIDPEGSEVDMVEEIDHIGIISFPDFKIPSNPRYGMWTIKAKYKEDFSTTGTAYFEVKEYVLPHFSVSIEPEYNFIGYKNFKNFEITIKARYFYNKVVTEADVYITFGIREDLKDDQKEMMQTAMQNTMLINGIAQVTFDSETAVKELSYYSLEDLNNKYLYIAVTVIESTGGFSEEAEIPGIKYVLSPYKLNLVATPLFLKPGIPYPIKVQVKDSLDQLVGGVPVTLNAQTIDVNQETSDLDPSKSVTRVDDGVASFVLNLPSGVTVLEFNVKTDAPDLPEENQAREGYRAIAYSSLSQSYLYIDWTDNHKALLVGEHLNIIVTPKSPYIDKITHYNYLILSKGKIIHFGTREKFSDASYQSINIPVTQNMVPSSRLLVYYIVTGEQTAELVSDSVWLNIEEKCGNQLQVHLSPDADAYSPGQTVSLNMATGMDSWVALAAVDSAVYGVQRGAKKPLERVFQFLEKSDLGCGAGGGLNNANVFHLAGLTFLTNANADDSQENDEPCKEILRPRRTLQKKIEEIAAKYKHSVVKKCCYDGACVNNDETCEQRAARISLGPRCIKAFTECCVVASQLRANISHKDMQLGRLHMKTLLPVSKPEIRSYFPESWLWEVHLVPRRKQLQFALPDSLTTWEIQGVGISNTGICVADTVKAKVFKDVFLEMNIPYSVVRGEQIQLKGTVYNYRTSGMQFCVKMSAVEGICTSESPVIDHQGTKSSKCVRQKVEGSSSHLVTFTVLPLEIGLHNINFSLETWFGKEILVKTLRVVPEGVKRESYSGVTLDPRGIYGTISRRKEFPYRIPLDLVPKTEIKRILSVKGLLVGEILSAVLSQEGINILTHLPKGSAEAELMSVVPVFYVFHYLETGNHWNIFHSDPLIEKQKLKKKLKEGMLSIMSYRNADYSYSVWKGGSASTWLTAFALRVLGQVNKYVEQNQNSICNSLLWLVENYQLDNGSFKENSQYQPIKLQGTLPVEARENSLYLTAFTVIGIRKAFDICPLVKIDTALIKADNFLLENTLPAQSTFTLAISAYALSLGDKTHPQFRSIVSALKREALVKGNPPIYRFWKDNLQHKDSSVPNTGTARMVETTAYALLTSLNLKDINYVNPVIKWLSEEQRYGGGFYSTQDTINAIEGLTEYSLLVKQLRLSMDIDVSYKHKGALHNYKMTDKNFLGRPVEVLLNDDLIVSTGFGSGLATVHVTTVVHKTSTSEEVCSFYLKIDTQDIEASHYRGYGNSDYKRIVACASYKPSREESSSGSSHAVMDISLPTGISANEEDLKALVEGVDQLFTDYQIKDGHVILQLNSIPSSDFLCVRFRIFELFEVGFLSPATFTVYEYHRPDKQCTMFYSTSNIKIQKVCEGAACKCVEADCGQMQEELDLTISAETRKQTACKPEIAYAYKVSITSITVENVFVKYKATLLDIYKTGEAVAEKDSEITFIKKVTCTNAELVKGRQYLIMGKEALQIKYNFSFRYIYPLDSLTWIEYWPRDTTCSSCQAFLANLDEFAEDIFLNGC

[2] = biological target: T2, mouse complement component 5 (C5) (Mus musculus, strain , UniProt P06684); test: SPR; Biacore T200; BB5.1 immobilised on CM5 chip by amine coupling (~200 RU); mouse C5 flowed at 52-4 nM in HBS-EP (10 mM HEPES, 150 mM NaCl, 0.05% surfactant P20), 30 µl/min, 25°; Langmuir 1:1 binding model; conditions: both partners purified
T2 construct: complement C5 beta chain (80 000 MW), mouse, cut from the C5 precursor; complement C5 alpha chain (115 000 MW), mouse, cut from the C5 precursor; also called mouse C5; intact C5; source: purified in-house

B1: BB5.1 anti-C5 monoclonal antibody (intact mAb) (antibody, V domains shown)
VH: QVQLQQPGAELVRPGTSVKLSCKASGYTFTSSWMHWVKQRPGQGLEWIGVIDPSDSYTNYNQKFKGKATLTVDTSSSTAYMQLSSLTSEDSAVYYCARGGGSSYNRYFDVWGTGTTVTVSS
VL: NIMMTQSPSSLAVSAGEKVTMSCKSSQSVLYSSNQKNYLAWYQQKPGQSPKLLIYWASTRESGVPDRFTGSGSGTDFTLTISSVQAEDLAVYYCHQYLSSRTFGGGTKLEIK
notes: full variable heavy domain; full variable light domain; raised in C5-deficient mice; also called BB5.1 mAb; full-length BB5.1; source: BB5.1 hybridoma (re-cloned), purified on HiTrap Protein G sepharose
- binding result [1]: no binding (tested: 5 µg/ml)
- Kd [2]: 8.1 nM
- koff [2]: 0.0013 s⁻¹

B2: BB5.1 Fab fragments (Fab, V domains shown)
VH: B1 VH
VL: B1 VL
notes: as the VH of m1; as the VL of m1; Fab of a mouse IgG1, kappa antibody; also called BB5.1-derived Fab fragment; source: immobilized ficin digestion of purified BB5.1 mAb; Fc-containing proteins removed on Protein A or G column
- binding result [1]: no binding (tested: 20 µg/ml)
